# Results from the supplement of paper PMC9112550, “Optimization of the antimicrobial peptide Bac7 by deep mutational scanning” (BMC Biology, 2022).
# System: Escherichia coli TOP10
# Assay: shrunken log2 fold change of peptide-encoding DNA abundance (4.5 h post-induction vs induction); higher = less antimicrobial activity (less host growth inhibition)
# Details: time post-induction: 4.5 h; library: site-saturation at positions 5, 18, 19, 20
# 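Further: peptides expressed intracellularly from a pBAD plasmid library in pooled LB shake-flask culture, induced with 0.3% L-arabinose, DNA abundance read by NGS, three biological replicates, DESeq2 with apeglm shrinkage.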
row,Sequence,shrunken log2 fold change
1,RRIRRRPPRLPRPRPRPYHSPRP,-0.017
2,RRIRWRPPRLPRPRPRPRLMPRP,0.44
3,RRIRQRPPRLPRPRPRPRTNPRP,0.158
4,RRIRVRPPRLPRPRPRPWPVPRP,0.197
5,RRIRGRPPRLPRPRPRPVHLPRP,0.034
6,RRIRWRPPRLPRPRPRPPPHPRP,0.721
7,RRIRIRPPRLPRPRPRPVYQPRP,-0.649
8,RRIRHRPPRLPRPRPRPSIRPRP,-0.345
9,RRIRSRPPRLPRPRPRPFLAPRP,-0.311
10,RRIRWRPPRLPRPRPRPHFWPRP,0.27
11,RRIRTRPPRLPRPRPRPMHQPRP,-0.0917
12,RRIRFRPPRLPRPRPRPYAEPRP,-0.823
13,RRIRLRPPRLPRPRPRPMRNPRP,0.372
14,RRIRQRPPRLPRPRPRPAPGPRP,0.417
15,RRIRRRPPRLPRPRPRPTWNPRP,0.951
16,RRIRNRPPRLPRPRPRPTEKPRP,-0.0107
17,RRIRRRPPRLPRPRPRPKRAPRP,0.52
18,RRIRYRPPRLPRPRPRPAAEPRP,0.22
19,RRIRTRPPRLPRPRPRPPAPPRP,0.592
20,RRIRWRPPRLPRPRPRPDHLPRP,0.08
21,RRIRSRPPRLPRPRPRPDVLPRP,-0.104
22,RRIRMRPPRLPRPRPRPDEKPRP,-0.0255
23,RRIRDRPPRLPRPRPRPCYKPRP,0.0316
24,RRIRMRPPRLPRPRPRPVDNPRP,0.113
25,RRIRMRPPRLPRPRPRPVTKPRP,0.253

row,Sequence,shrunken log2 fold change
1,RRIRWRPPRLPRPRPRPERSPRP,0.317
2,RRIRNRPPRLPRPRPRPAHFPRP,0.292
3,RRIRTRPPRLPRPRPRPLHSPRP,0.186
4,RRIRVRPPRLPRPRPRPQATPRP,0.271
5,RRIRVRPPRLPRPRPRPKSCPRP,-0.113
6,RRIRMRPPRLPRPRPRPCMLPRP,0.303
7,RRIRFRPPRLPRPRPRPGLYPRP,-0.171
8,RRIRHRPPRLPRPRPRPGHHPRP,-0.132
9,RRIRHRPPRLPRPRPRPGANPRP,-0.0811
10,RRIRSRPPRLPRPRPRPPDMPRP,-0.188
11,RRIRVRPPRLPRPRPRPCRHPRP,0.0429
12,RRIRVRPPRLPRPRPRPINYPRP,-0.348
13,RRIRPRPPRLPRPRPRPITSPRP,-0.354
14,RRIRLRPPRLPRPRPRPFWSPRP,-0.162
15,RRIRQRPPRLPRPRPRPMCRPRP,-0.0374
16,RRIRWRPPRLPRPRPRPDLAPRP,0.953
17,RRIRFRPPRLPRPRPRPDGDPRP,0.0613
18,RRIRVRPPRLPRPRPRPRDPPRP,0.617
19,RRIRIRPPRLPRPRPRPFAPPRP,1.3
20,RRIRRRPPRLPRPRPRPHRWPRP,0.409
21,RRIRFRPPRLPRPRPRPGVEPRP,0.112
22,RRIRCRPPRLPRPRPRPERRPRP,0.0271
23,RRIRTRPPRLPRPRPRPMVAPRP,0.0166
24,RRIRGRPPRLPRPRPRPNHPPRP,0.0349
25,RRIRKRPPRLPRPRPRPSWQPRP,-0.212

row,Sequence,shrunken log2 fold change
1,RRIRYRPPRLPRPRPRPWSEPRP,-0.117
2,RRIRLRPPRLPRPRPRPQDWPRP,-0.104
3,RRIRYRPPRLPRPRPRPAITPRP,-0.933
4,RRIRPRPPRLPRPRPRPWLEPRP,-0.0732
5,RRIRVRPPRLPRPRPRPYANPRP,0.0231
6,RRIRQRPPRLPRPRPRPFWTPRP,-0.166
7,RRIRLRPPRLPRPRPRPVPIPRP,0.125
8,RRIRGRPPRLPRPRPRPNMYPRP,-0.185
9,RRIRIRPPRLPRPRPRPYTAPRP,-1.28
10,RRIRPRPPRLPRPRPRPNIKPRP,-0.322
11,RRIRQRPPRLPRPRPRPDTIPRP,0.0406
12,RRIRLRPPRLPRPRPRPEELPRP,0.068
13,RRIRDRPPRLPRPRPRPEADPRP,1.93
14,RRIRTRPPRLPRPRPRPSQKPRP,0.039
15,RRIRLRPPRLPRPRPRPCYQPRP,-0.476
16,RRIRCRPPRLPRPRPRPNGWPRP,-0.183
17,RRIRWRPPRLPRPRPRPGYNPRP,-0.0807
18,RRIRKRPPRLPRPRPRPFWRPRP,0.00905
19,RRIRCRPPRLPRPRPRPGIKPRP,-0.876
20,RRIRPRPPRLPRPRPRPRWGPRP,0.509
21,RRIRTRPPRLPRPRPRPAKHPRP,0.0349
22,RRIRSRPPRLPRPRPRPCCLPRP,-0.125
23,RRIRNRPPRLPRPRPRPMTKPRP,0.116
24,RRIRMRPPRLPRPRPRPFGVPRP,0.0231
25,RRIRCRPPRLPRPRPRPISPPRP,0.153

row,Sequence,shrunken log2 fold change
1,RRIRKRPPRLPRPRPRPGCEPRP,1.31
2,RRIRARPPRLPRPRPRPSNPPRP,-0.0677
3,RRIRPRPPRLPRPRPRPTSIPRP,-0.375
4,RRIRWRPPRLPRPRPRPGYSPRP,-0.191
5,RRIRWRPPRLPRPRPRPNQDPRP,0.0957
6,RRIRDRPPRLPRPRPRPTGVPRP,-0.0117
7,RRIRSRPPRLPRPRPRPWKAPRP,-0.00809
8,RRIRDRPPRLPRPRPRPQAAPRP,0.0147
9,RRIRARPPRLPRPRPRPYAPPRP,0.162
10,RRIRCRPPRLPRPRPRPYHCPRP,-0.271
11,RRIRERPPRLPRPRPRPNMDPRP,-0.209
12,RRIRQRPPRLPRPRPRPQTYPRP,-0.958
13,RRIRCRPPRLPRPRPRPDVKPRP,-0.153
14,RRIRCRPPRLPRPRPRPARNPRP,-0.182
15,RRIRARPPRLPRPRPRPTFQPRP,0.529
16,RRIRERPPRLPRPRPRPQRMPRP,-0.411
17,RRIRSRPPRLPRPRPRPPSEPRP,0.0467
18,RRIRMRPPRLPRPRPRPSHPPRP,-0.0222
19,RRIRNRPPRLPRPRPRPHGPPRP,0.115
20,RRIRVRPPRLPRPRPRPSKLPRP,-0.797
21,RRIRGRPPRLPRPRPRPIAIPRP,0.216
22,RRIRHRPPRLPRPRPRPETWPRP,-0.238
23,RRIRTRPPRLPRPRPRPISAPRP,0.259
24,RRIRFRPPRLPRPRPRPSQLPRP,-0.462
25,RRIRVRPPRLPRPRPRPYPPPRP,-0.103

row,Sequence,shrunken log2 fold change
1,RRIRHRPPRLPRPRPRPRSAPRP,0.356
2,RRIRFRPPRLPRPRPRPISQPRP,-0.588
3,RRIRVRPPRLPRPRPRPPADPRP,0.565
4,RRIRTRPPRLPRPRPRPYFMPRP,-0.836
5,RRIRTRPPRLPRPRPRPLMWPRP,-0.151
6,RRIRGRPPRLPRPRPRPTMPPRP,0.425
7,RRIRDRPPRLPRPRPRPTARPRP,0.546
8,RRIRVRPPRLPRPRPRPERIPRP,-0.00978
9,RRIRQRPPRLPRPRPRPTKLPRP,-0.0369
10,RRIRARPPRLPRPRPRPCRWPRP,0.26
11,RRIRERPPRLPRPRPRPYKPPRP,-0.116
12,RRIRARPPRLPRPRPRPYDPPRP,-0.406
13,RRIRVRPPRLPRPRPRPFNRPRP,-0.0378
14,RRIRVRPPRLPRPRPRPCHLPRP,-0.00192
15,RRIRIRPPRLPRPRPRPEPNPRP,-0.0783
16,RRIRMRPPRLPRPRPRPNARPRP,0.323
17,RRIRIRPPRLPRPRPRPRQGPRP,0.0734
18,RRIRTRPPRLPRPRPRPCKAPRP,-0.00146
19,RRIRFRPPRLPRPRPRPIIIPRP,-0.579
20,RRIRFRPPRLPRPRPRPMMTPRP,0.022
21,RRIRLRPPRLPRPRPRPKAYPRP,-0.402
22,RRIRTRPPRLPRPRPRPLDWPRP,0.398
23,RRIRNRPPRLPRPRPRPRSCPRP,0.763
24,RRIRVRPPRLPRPRPRPKIGPRP,-0.0842
25,RRIRERPPRLPRPRPRPVQSPRP,-0.015

row,Sequence,shrunken log2 fold change
1,RRIRWRPPRLPRPRPRPDERPRP,-0.00133
2,RRIRNRPPRLPRPRPRPGLNPRP,0.035
3,RRIRLRPPRLPRPRPRPFCVPRP,-0.265
4,RRIRRRPPRLPRPRPRPFLEPRP,0.0277
5,RRIRKRPPRLPRPRPRPGHYPRP,0.0236
6,RRIRDRPPRLPRPRPRPQGRPRP,-0.0642
7,RRIRYRPPRLPRPRPRPAANPRP,-0.0861
8,RRIRCRPPRLPRPRPRPRDVPRP,0.227
9,RRIRNRPPRLPRPRPRPAIWPRP,0.13
10,RRIRNRPPRLPRPRPRPGKRPRP,0.00355
11,RRIRTRPPRLPRPRPRPECRPRP,0.569
12,RRIRLRPPRLPRPRPRPYNAPRP,-0.0942
13,RRIRRRPPRLPRPRPRPDKEPRP,0.0257
14,RRIRTRPPRLPRPRPRPQEVPRP,-0.0102
15,RRIRFRPPRLPRPRPRPWPTPRP,-0.0457
16,RRIRWRPPRLPRPRPRPKSNPRP,-0.164
17,RRIRNRPPRLPRPRPRPGKVPRP,-0.123
18,RRIRRRPPRLPRPRPRPPEPPRP,0.977
19,RRIRNRPPRLPRPRPRPQLHPRP,-0.358
20,RRIRGRPPRLPRPRPRPHLEPRP,0.381
21,RRIRVRPPRLPRPRPRPVGEPRP,0.305
22,RRIRERPPRLPRPRPRPFSCPRP,0.0263
23,RRIRNRPPRLPRPRPRPNTVPRP,-0.409
24,RRIRLRPPRLPRPRPRPHFRPRP,-0.102
25,RRIRIRPPRLPRPRPRPNMLPRP,-1.18
